Reference: US20030130484A1, “Inhibitors and disassemblers of fibrillogenesis” (priority 2001, published 2003)

Molecular target: human Aβ1-40 peptide (human)
Assay: cell-based or functional assay

Sequence of human Aβ1-40 peptide (human) (peptide, as listed by the source): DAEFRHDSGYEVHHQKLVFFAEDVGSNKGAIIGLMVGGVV

Ac-Aβ16-22 (Peptide VI)
IC50 of inhibition of Aβ40 fibrillogenesis (inhibitor:Aβ ratio): 10
Inhibition of Fibrillogenesis IC50 (thioflavin fluorescence) (inhibitor:Aβ40 molar ratio): 8.4
Inhibition of Fibrillogenesis ICmax: 100%
Inhibition of Fibrilogenesis IC50 (µM): 8.4 µM
Inhibition of Fibrilogenesis ICmax (%): 100%

Anth-Aβ16-20 (peptide)
Inhibition of Fibrilogenesis IC50 (µM): 0.3 µM
Inhibition of Fibrilogenesis ICmax (%): 100%

Aβ16-22 (peptide)
Inhibition of Fibrillogenesis IC50 (thioflavin fluorescence) (inhibitor:Aβ40 molar ratio): 1.1
Inhibition of Fibrillogenesis ICmax: 23%
Inhibition of Fibrilogenesis IC50 (µM): 1.1 µM
Inhibition of Fibrilogenesis ICmax (%): 23%
percent inhibition of fibrillogenesis at concentrations at which Aβ16-22m inhibited completely: 10 to 20%
